Source: publication PMC8928417

Target: biotinylated histone H3 peptide trimethylated at lysine 27, H3K27me3 (21–44) (UniProt P68431)
Assay: peptide or protein array

Substance: polycomb-based transcription factor (PcTF), monovalent (from UniProt Q9HC52 1-62) (designed binder)
- Kd: 5.14 to 8.95 µM
